In test [1] the target is T1, SARS-CoV-1 Receptor Binding Domain (RBD) protein (SARS-CoV-1, UniProt P59594 306-527).
T1 construct: also called SARS1
Briefly: SPR Carterra LSA, scFv captured via anti-V5.

The target in test [2] is T2, MERS Receptor Binding Domain (RBD) protein (Middle East Respiratory Syndrome (MERS) …, UniProt K9N5Q8 367-606).
T2 construct: also called Middle East Respiratory Syndrome (MERS) virus
T2 sequence: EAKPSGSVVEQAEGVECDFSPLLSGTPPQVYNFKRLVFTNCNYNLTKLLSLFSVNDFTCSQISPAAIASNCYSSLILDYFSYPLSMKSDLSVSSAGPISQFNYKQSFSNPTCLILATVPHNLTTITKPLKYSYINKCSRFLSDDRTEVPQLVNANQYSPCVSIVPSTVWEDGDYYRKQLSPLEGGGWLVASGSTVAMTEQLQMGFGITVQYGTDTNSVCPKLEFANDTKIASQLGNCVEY
Briefly: SPR Carterra LSA, scFv captured via anti-V5.

B1: COVID19_P10_A09 (scFv, V domains shown)
VH: QVQLVQSGAEVKKPGSSVKVSCKASGYTFTDYYIHWVRQAPGQGLEWMGWMNPNSGNTGYAQNFQGRVTITADESTSTAYMELSSLRSEDTAVYYCAGGSGISTAWDVWGQGTLVTVSS
VL: DIVMTQSPDSLAVSLGERATIRCTSSLSLQDRSNNKNYLTWYQQKPGQPPKLLIYWASTRESGVPDRFSGSGSGTDFTLTISSLQAEDVAVYYCQQHYSAPLTFGGGTKVEIKR
B1: the binding result in test [1] and in test [2] was “no binding (tested: 300 nM)” in each case.

B2: COVID19_P21_B09 (scFv, V domains shown)
VH: QVQLVQSGAEVKKPGSSVKVSCKASGYTFTGHYMHWVRQAPGQGLEWMGIIYPGDSEARYSQKFQGRVTITADESTSTAYMELSSLRSEDTAVYYCAGGSGISTPMDVWGQGTLVTVSS
VL: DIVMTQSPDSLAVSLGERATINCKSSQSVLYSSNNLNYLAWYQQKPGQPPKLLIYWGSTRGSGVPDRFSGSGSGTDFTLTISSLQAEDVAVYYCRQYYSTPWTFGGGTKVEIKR
Turning to B2, the binding result in test [1] and in test [2] was “no binding (tested: 300 nM)” in each case.

B3: COVID19_P09_E11 (scFv, V domains shown)
VH: QVQLVQSGAEVKKPGSSVKVSCKASGGTFSNHAISWVRQAYGQGLEWMGIIYPGDGTTRYSQKFQGRVTITADESTSTAYMELSSLRSEDTAVYYCAGGSGISTPMDVWGQGTLVTVSS
VL: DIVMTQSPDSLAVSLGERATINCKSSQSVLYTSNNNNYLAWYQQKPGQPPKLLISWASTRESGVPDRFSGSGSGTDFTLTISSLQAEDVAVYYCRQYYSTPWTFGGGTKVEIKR
Consider B3, for which the binding result in test [1] and in test [2] was “no binding (tested: 300 nM)” throughout.

B4: COVID19_P10_G03 (scFv, V domains shown)
VH: QVQLVQSGAEVKKPGSSVKVSCKASGGTFSNSSINWVRQAPGQGLEWMGRINPNSGGTNYAQKFQGRVTITADESTSTAYMELSSLRSEDTAVYYCAGGSGISTPMDVWGQGTLVTVSS
VL: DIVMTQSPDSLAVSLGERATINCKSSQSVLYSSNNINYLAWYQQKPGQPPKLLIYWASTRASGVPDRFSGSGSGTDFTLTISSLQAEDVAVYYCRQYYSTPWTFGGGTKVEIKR
Consider B4, for which the binding result in test [1] and in test [2] was “no binding (tested: 300 nM)” in each case.

B5: COVID19_P22_H10 (scFv, V domains shown)
VH: QVQLVQSGAEVKKPGSSVKVSCKASGGGFSTYWIGWVRQAPGQGLEWVGWINPNSGATKYAQKFQGRVTITADESTSTAYMELSSLRSEDTAVYYCAGGSGISTPMDVWGQGTLVTVSS
VL: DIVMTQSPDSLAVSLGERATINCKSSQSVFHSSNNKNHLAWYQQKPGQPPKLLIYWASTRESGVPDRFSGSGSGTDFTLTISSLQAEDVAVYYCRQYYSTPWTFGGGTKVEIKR
Regarding B5, the binding result in test [1] and in test [2] was “no binding (tested: 300 nM)” in each case.

B6: COVID19_P21_B01 (scFv, V domains shown)
VH: QVQLVQSGAEVKKPGSSVKVSCKASGYTFSTYWIGWVRQAPGQGLEWMGWIDPNSGGTNYAQKFQGRVTITADESTSTAYMELSSLRSEDTAVYYCAGGSGISTPMDVWGQGTLVTVSS
VL: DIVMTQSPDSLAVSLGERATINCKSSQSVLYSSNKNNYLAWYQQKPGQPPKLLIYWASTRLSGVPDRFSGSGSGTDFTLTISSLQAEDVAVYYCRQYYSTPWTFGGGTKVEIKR
For the molecule B6, the binding result in test [1] and in test [2] was “no binding (tested: 300 nM)” throughout.

B7: COVID19_P21_H01 (scFv, V domains shown)
VH: QVQLVQSGAEVKKPGSSVKVSCKASGYGFSTYWIGWVRQAPGQGLEWMGWINPNSGGTNYAQKFQGRVTITADESTSTAYMELSSLRSEDTAVYYCAGGSGISTPMDVWGQGTLVTVSS
VL: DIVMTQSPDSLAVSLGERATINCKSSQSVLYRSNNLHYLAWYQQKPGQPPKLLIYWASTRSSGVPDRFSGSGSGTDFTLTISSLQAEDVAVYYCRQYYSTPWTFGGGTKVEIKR
On to B7, for which the binding result in test [1] and in test [2] was “no binding (tested: 300 nM)” in each case.

B8: COVID19_P22_F07 (scFv, V domains shown)
VH: QVQLVQSGAEVKKPGSSVKVSCKASGGTFSSYAISWVRQAPGQGLEWMGGIIPIFGSTASYAQKFQGRVTITADESTSTAYMELSSLRSEDTAVYYCAGEWGISTPMDVWGQGTLVTVSS
VL: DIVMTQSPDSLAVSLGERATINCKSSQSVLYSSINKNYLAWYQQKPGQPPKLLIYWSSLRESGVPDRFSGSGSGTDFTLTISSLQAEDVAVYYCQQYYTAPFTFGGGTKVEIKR
Regarding B8, the binding result in test [1] and in test [2] was “no binding (tested: 300 nM)” in each case.

B9: COVID19_P09_G02 (scFv, V domains shown)
VH: QVQLVQSGAEVKKPGSSVKVSCKASGGTFSSYAISWVRQAPGQGLEWMGIIYPGDSTTNYSQKFQGRVTITADESTSTAYMELSSLRSEDTAVYYCAGHWGISTPMDVWGQGTLVTVSS
VL: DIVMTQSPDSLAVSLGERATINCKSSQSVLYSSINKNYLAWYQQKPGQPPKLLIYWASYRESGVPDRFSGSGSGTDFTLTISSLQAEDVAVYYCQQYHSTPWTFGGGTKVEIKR
For B9, the binding result in test [1] and in test [2] was “no binding (tested: 300 nM)” each time.

B10: COVID19_P09_C09 (scFv, V domains shown)
VH: QVQLVQSGAEVKKPGSSVKVSCKASGGTFSSYAISWVRQAPGQGLEWMGIIDPSGGSTSYAQQFQGRVTITADESTSTAYMELSSLRSEDTAVYYCAGGSGISTPMDVWGQGTLVTVSS
VL: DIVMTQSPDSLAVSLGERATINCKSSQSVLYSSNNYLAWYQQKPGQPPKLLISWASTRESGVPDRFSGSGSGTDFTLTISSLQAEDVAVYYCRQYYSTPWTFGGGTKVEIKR
For B10, the binding result in test [1] and in test [2] was “no binding (tested: 300 nM)” throughout.

B11: COVID19_P09_E05 (scFv, V domains shown)
VH: QVQLVQSGAEVKKPGSSVKVSCKASGGTFSSYAISWVRQAPGQGLEWMGIIYPGDSTTRYSQKFQGRVTITADESTSTAYMELSSLRSEDTAVYYCYSGSGISTPMDVWGQGTLVTVSS
VL: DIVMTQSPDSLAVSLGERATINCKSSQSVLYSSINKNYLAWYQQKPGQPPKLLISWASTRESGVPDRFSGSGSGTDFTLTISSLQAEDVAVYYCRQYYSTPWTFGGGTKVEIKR
Consider B11, for which the binding result in test [1] and in test [2] was “no binding (tested: 300 nM)” each time.

B12: COVID19_P10_B06 (scFv, V domains shown)
VH: QVQLVQSGAEVKKPGSSVKVSCKASGGTFSSYAISWVRQAPGQGLEWMGIIYPGDSTTRYSQKFQGRVTITADESTSTAYMELSSLRSEDTAVYYCYSGSGISTPMDVWGQGTLVTVSS
VL: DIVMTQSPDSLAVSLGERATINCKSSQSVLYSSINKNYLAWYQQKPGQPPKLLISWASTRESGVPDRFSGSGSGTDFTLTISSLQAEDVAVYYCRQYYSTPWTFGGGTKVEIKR
Turning to B12, the binding result in test [1] and in test [2] was “no binding (tested: 300 nM)” in each case.

B13: COVID19_P09_B07 (scFv, V domains shown)
VH: QVQLVQSGAEVKKPGSSVKVSCKASGGTFSSYAISWVRQAPGQGLEWMGGIIPTLGTANYAQKFQGRVTITADESTSTAYMELSSLRSEDTAVYYCAGSWGISTPMDVWGQGTLVTVSS
VL: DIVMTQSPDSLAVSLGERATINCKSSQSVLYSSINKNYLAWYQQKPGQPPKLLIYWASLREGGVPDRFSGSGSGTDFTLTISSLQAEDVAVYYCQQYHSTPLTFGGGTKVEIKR
Turning to B13, the binding result in test [1] and in test [2] was “no binding (tested: 300 nM)” throughout.

B14: COVID19_P09_A09 (scFv, V domains shown)
VH: QVQLVQSGAEVKKPGSSVKVSCKASGGTFSSYAISWVRQAPGQGLEWMGIIYPGDSTTRYSQKFQGRVTITADESTSTAYMELSSLRSEDTAVYYCYSGSGISTPMDVWGQGTLVTVSS
VL: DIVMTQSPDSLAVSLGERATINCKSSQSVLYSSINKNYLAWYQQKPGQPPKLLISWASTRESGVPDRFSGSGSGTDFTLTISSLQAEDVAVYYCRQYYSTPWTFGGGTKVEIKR
Consider B14, for which the binding result in test [1] and in test [2] was “no binding (tested: 300 nM)” throughout.

B15: COVID19_P21_E12 (scFv, V domains shown)
VH: QVQLVQSGAEVKKPGSSVKVSCKASGGTFISYAISWVRQAPGQGLEWMGGIIPTLGTYNYAQKFQGRVTITADESTSTAYMELSSLRSEDTAVYYCAGSWGISTPMDVWGQGTLVTVSS
VL: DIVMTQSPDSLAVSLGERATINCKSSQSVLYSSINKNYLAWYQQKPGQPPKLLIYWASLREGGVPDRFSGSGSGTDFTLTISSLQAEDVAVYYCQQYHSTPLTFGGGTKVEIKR
Regarding B15, the binding result in test [1] and in test [2] was “no binding (tested: 300 nM)” each time.

B16: COVID19_P09_H08 (scFv, V domains shown)
VH: QVQLVQSGAEVKKPGSSVKVSCKASGGTFSSYAISWVRQAPGQGLEWMGGIIPIFGTTNYAQKFQGRVTITADESTSTAYMELSSLRSEDTAVYYCAGEWGISTPMDVWGQGTLVTVSS
VL: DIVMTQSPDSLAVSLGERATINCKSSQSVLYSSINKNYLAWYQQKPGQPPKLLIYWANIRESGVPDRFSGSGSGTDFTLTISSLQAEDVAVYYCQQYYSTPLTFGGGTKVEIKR
As to B16, the binding result in test [1] and in test [2] was “no binding (tested: 300 nM)” throughout.

B17: COVID19_P09_B10 (scFv, V domains shown)
VH: QVQLVQSGAEVKKPGSSVKVSCKASGYSFTDYHIHWVRQAPGQGLEWMAMIVPRGGSTTYAQKFQGRVTITADESTSTAYMELSSLRSEDTAVYYCAGGSGISTPMDVWGQGTLVTVSS
VL: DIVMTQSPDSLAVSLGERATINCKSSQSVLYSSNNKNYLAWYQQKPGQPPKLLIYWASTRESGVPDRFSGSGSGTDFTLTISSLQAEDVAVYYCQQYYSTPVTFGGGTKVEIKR
Take B17: the binding result in test [1] and in test [2] was “no binding (tested: 300 nM)” in each case.

B18: COVID19_P22_E12 (scFv, V domains shown)
VH: QVQLVQSGAEVKKPGSSVKVSCKASGGTFSSYAINWVRQAPGQGLEWMGGIIPVLHTVDYAQRLQGRVTITADESTSTAYMELSSLRSEDTAVYYCAGEWGISTPMDVWGQGTLVTVSS
VL: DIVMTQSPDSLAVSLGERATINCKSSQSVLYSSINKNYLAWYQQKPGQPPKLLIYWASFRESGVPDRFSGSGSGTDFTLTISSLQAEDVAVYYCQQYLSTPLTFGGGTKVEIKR
Consider B18, for which the binding result in test [1] and in test [2] was “no binding (tested: 300 nM)” each time.

The values are drawn from patent publication US20240270825A1 (CENTIVAX, published 2024).
